According to US7118889 (US Dept. of Health and Human Services, dated 2006):

Experiments:
[1] = target: Lck protein tyrosine kinase (transfected in 293T cells) (UniProt P06239 2-509, limits assumed); assay: co-immunoprecipitation from transfected 293T cells
Procedure: Figure 4B: FIG. 4(B) is a representative immunoblot, showing association of LAT with signaling molecules in 293T cells. FLAG-tagged LAT was cotransfected with pCEFL/HA-Grb2, pSRα/Grap-myc, pcDNA3/HA-p85 and pcDNA3/PLC-γ1 in the absence or presence of ZAP-70 and Lck PTKs. Brij lysates of transfected 293T cells were immunoprecipitated with anti-FLAG, and association of LAT with tested proteins was determined by blotting with specific antibodies.
In this example, association of LAT with Grb2, Grap, PI3K and PLC-γ1 is shown in 293T cells. To investigate the association of LAT with critical signaling molecules, FLAG-tagged LAT in the pcDNA3 vector was cotransfected in 293T cells with plasmids expressing HA-tagged Grb2, Myc-tagged Grap, HA-tagged p85 subunit of PI3K or PLC-γ1, in the presence or absence of both ZAP-70 and Lck. LAT was immunoprecipitated with anti-FLAG antibody, and associated proteins were detected by blotting with specific antibodies. […] When LAT and the two PTKs were coexpressed with HA-tagged Grb2, both endogenous Grb2 and HA-Grb2 bound to phosphorylated LAT (HA-Grb2 migrates more slowly than endogenous Grb2 on SDS-PAGE). Myc-tagged Grap, the Grb2-like protein, when coexpressed with LAT in the presence of the two PTKs, also associated with phosphorylated LAT. […] HA-tagged p85 or PLC-γ1 also associated with phosphorylated LAT. […]

[2] = target: T1, Grb2, endogenous (293T cells and Jurkat T cells) (human, UniProt P62993 1-217); assay: anti-myc immunoprecipitation from C305-stimulated stable Jurkat transfectants, immunoblot
T1 construct: Endogenous protein of human cell lines; also called endogenous Grb2; Grb2 linker protein
T1 sequence (P62993 whole entry): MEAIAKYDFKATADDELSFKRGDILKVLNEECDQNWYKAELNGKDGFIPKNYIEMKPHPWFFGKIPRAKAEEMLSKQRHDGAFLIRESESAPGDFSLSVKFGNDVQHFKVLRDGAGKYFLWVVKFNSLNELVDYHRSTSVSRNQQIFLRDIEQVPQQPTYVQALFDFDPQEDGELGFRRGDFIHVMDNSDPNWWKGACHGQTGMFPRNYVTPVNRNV
Procedure: (§1) Exogenous LAT was immunoprecipitated with anti-myc antibody from cells either left unstimulated or stimulated with C305 (1:50). Samples were analyzed on SDS-PAGE and blotted with 4G10. The same membrane was also blotted with anti-PLC-γ1, anti-p85, anti-Grb2, anti-SOS, and anti-LAT after stripping.
(§2) Myc-tagged LAT was immunoprecipitated with anti-myc antibody from unstimulated or C305 stimulated transfectants. […] The myc-tagged LAT appears as a doublet as does endogenous LAT. […] In addition, mutations at Y171 and Y191 prevented the association of SLP-76, Vav and Cbl, but the 70 kDa tyrosine-phosphorylated protein remained associated with LAT. […] The association with SOS was also disrupted by the double Y to F mutations.

[3] = target: T2, Cbl, endogenous, Jurkat T cells (human, UniProt P22681 1-906, tyrosine phosphorylated in stimulated cells); assay: as above
T2 construct: also called Cbl (120 kD); c-cbl
Procedure: as §1, §2

[4] = target: T3, Vav, endogenous, Jurkat T cells (human, UniProt P15498 1-845, tyrosine phosphorylated in stimulated cells); assay: as above
T3 construct: also called Vav (100 kD)
T3 sequence (looked up): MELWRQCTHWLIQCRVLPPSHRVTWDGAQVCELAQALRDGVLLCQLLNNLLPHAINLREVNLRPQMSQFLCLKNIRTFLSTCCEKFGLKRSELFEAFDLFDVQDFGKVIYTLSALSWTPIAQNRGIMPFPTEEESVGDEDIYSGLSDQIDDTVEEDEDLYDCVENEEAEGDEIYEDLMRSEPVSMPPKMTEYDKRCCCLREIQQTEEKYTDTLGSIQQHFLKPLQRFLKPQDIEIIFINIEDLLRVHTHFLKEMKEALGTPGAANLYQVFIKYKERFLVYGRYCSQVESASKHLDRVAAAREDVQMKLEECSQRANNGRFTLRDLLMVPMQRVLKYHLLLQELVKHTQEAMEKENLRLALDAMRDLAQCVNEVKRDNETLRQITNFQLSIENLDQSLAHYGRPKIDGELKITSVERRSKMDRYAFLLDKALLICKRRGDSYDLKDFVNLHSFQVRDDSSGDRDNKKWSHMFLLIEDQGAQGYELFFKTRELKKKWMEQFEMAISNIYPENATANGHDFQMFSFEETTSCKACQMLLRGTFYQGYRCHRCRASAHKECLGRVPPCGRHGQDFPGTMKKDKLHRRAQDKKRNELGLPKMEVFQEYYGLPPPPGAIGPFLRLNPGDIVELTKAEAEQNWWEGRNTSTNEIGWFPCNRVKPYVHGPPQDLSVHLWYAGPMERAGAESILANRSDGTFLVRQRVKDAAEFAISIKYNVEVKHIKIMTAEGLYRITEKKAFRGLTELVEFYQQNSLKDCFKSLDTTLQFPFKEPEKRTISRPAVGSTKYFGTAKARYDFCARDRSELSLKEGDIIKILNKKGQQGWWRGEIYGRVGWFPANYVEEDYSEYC
Procedure: as §1, §2

[5] = target: T4, SLP-76, endogenous, Jurkat T cells (human, UniProt Q13094 1-533, tyrosine phosphorylated in stimulated cells); assay: as above
T4 construct: mature; also called 76 kD protein; SH2-domain Leukocyte Protein
T4 sequence (looked up): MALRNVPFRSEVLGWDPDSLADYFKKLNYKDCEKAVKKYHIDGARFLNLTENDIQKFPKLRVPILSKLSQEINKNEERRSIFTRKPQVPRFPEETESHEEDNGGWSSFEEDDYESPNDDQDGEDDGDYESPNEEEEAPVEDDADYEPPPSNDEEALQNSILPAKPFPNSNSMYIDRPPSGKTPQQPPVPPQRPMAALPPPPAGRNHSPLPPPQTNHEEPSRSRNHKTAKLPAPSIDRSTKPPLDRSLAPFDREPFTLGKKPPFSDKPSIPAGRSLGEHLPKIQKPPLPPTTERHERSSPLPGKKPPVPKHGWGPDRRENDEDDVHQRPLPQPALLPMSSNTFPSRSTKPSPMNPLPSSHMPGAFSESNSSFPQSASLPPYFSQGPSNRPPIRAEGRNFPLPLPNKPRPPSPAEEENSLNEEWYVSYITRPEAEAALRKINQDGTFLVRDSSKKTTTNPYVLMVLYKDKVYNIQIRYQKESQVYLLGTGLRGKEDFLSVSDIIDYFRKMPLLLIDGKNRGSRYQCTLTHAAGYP
Procedure: as §1, §2

[6] = target: T5, p85 subunit of PI3K, endogenous, Jurkat T cells (human, UniProt P27986 2-724); assay: as above
T5 construct: mature; also called p85 subunit of PI-3 kinase
T5 sequence (P27986 2-724): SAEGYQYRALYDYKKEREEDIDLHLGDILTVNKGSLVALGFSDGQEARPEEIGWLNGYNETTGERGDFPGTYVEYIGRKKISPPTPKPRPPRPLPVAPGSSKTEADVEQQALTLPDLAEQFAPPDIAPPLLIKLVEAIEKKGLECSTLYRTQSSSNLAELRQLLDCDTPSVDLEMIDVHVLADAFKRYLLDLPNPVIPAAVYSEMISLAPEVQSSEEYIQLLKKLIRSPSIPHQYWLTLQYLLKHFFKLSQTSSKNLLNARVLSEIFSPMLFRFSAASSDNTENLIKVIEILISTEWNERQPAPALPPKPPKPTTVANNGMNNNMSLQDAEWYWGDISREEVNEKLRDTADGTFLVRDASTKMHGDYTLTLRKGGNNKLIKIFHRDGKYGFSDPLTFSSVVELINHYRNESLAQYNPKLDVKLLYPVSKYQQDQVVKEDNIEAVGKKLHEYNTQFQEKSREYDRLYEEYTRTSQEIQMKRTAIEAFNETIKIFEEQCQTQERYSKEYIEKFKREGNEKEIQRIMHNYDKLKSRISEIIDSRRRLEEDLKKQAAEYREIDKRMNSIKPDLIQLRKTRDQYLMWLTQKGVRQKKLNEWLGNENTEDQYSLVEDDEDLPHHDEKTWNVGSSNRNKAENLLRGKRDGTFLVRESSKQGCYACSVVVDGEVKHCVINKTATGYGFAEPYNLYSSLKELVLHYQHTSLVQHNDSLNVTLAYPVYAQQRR
Procedure: as §1, §2

Measured: binding result

Chain of Lck protein tyrosine kinase (transfected in 293T cells) (P06239 2-509 limits assumed): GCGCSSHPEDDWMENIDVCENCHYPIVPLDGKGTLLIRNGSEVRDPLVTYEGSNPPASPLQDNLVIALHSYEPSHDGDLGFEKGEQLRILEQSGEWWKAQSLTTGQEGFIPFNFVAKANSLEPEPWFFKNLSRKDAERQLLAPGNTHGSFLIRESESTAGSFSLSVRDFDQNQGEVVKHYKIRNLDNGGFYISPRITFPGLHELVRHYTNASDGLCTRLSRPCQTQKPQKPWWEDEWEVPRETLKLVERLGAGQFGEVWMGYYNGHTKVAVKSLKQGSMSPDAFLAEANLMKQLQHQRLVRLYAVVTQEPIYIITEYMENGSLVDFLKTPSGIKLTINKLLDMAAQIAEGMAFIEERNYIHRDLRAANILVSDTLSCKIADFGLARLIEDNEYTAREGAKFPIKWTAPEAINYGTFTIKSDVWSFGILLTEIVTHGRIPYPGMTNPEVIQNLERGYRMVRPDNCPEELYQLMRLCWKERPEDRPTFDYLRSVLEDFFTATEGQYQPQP

B1: FLAG-tagged LAT, tyrosine phosphorylated (co-expressed in 293T cells with Syk, or with ZAP-70 and Lck or Fyn) (other)
chain: MEEAILVPCVLGLLLLPILAMLMALCVHCHRLPGSYDSTSSDSLYPRGIQFKRPHTVAPWPPAYPPVTSYPPLSQPDLLPIPRSPQPLGGSHRTPSSRRDSDGANSVASYENEEPACEDADEDEDDYHNPGYLVVLPDSTPATSTAAPSAPALSTPGIRDSAFSMESIDDYVNVPESGESAEASLDGSREYVNVSQELHPGAAKTEPAALSSQEAEEVEEEGAPDYENLQELNDYKDDDDK
modifications: tyrosine phosphorylated by co-expressed PTKs; sites not mapped
notes: Made by replacing the Pst I/Cla I fragment of LAT with an oligonucleotide encoding FLAG; also called phosphorylated LAT
no binding: [1]

B2: myc-tagged mutant LAT (Y171/191F), stably expressed in Jurkat cells, C305 stimulated (other)
chain: MEEAILVPCVLGLLLLPILAMLMALCVHCHRLPGSYDSTSSDSLYPRGIQFKRPHTVAPWPPAYPPVTSYPPLSQPDLLPIPRSPQPLGGSHRTPSSRRDSDGANSVASYENEEPACEDADEDEDDYHNPGYLVVLPDSTPATSTAAPSAPALSTPGIRDSAFSMESIDDFVNVPESGESAEASLDGSREFVNVSQELHPGAAKTEPAALSSQEAEEVEEEGAPDYENLQELNSMEQKLISEEDLN
modifications: tyrosine phosphorylated upon stimulation at residues other than Y171 and Y191, less than WT
notes: also called mLAT
no binding: [2] | [3] | [4] | [5] | [6]
